Measured values as given in patent publication US20260232732A1 (FUNDACI INSTITUT DE RECERCA CONTRA LA LEUC MIA JOSEP …, published 2026).
Where no end group is shown, it is not given here. The star is where a group is joined. Biotin = O=C1N[C@H]2[C@H](CS[C@H]2CCCCC(=O)*)N1

Key:
[1] = target: T1, Peptide 3-BSA (SSMEDYVNFN-C conjugated to BSA) (human); assay: ELISA; Ab 1 ug/mL; repI
T1 peptide: SSMEDYVNFNC(BSA)
Method: (§1) In brief, plates with each non-conjugated peptide (50 μg/mL) or BSA-conjugated peptide (5 μg/mL) were coated in 0.58M carbonate-bicarbonate buffer pH9.5, 100 μL/well, at 4° C. […] After washing, wells were incubated with the 3, 3′,5,5′-Tetramethylbenzidine (TMB) HRP substrate and reactions were stopped with 2M HCl and OD450 was recorded.

[2] = target: T2, Peptide 1-BSA (MADDYGSEST-C conjugated to BSA) (human); assay: ELISA; Ab 1 ug/mL; repI
T2 peptide: MADDYGSESTC(BSA)
Method: as §1

[3] = target: T3, antigen peptide-BSA (immunisation peptide #1 MADDYGSESTSSMEDYVNFNF-C conjugated to BSA) (human, extra C-terminal Cys conjugated to BSA); assay: ELISA; Ab 1 ug/mL; repI
T3 construct: also called Positive control antigen peptide-BSA; MADDY peptide
T3 peptide: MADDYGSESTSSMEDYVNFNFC
Method: as §1

[4] = target: T4, Peptide 4-BSA (SMEDYVNFNF-C conjugated to BSA) (human); assay: ELISA; Ab 0.01563 ug/mL; repI
T4 peptide: SMEDYVNFNFC(BSA)
Method: as §1

[5] = target: T5, Peptide 2, non-conjugated (GSESTSSMED-C) (human); assay: ELISA; Ab 0.01563 ug/mL; repI
T5 construct: With the extra C-terminal Cys
T5 peptide: GSESTSSMEDC
Method: as §1

[6] = target: T1, Peptide 3-BSA (SSMEDYVNFN-C conjugated …); assay: ELISA; Ab 0.01563 ug/mL; repI
Method: as §1

[7] = target: T6, BSA (negative control coating) (bovine, UniProt P02769 25-607); assay: ELISA; Ab 0.01563 ug/mL; repI
T6 construct: also called Negative control BSA
Method: as §1

[8] = target: T2, Peptide 1-BSA (MADDYGSEST-C conjugated …); assay: ELISA; Ab 0.01563 ug/mL; repI
Method: as §1

[9] = target: T7, Peptide 1, non-conjugated (MADDYGSEST-C) (human); assay: ELISA; Ab 0.01563 ug/mL; repI
T7 construct: With the extra C-terminal Cys
T7 peptide: MADDYGSESTC
Method: as §1

[10] = target: T8, Peptide 4, non-conjugated (SMEDYVNFNF-C) (human); assay: ELISA; Ab 0.01563 ug/mL; repI
T8 construct: With the extra C-terminal Cys
T8 peptide: SMEDYVNFNFC
Method: as §1

[11] = target: T9, Peptide 2-BSA (GSESTSSMED-C conjugated to BSA) (human); assay: ELISA; Ab 0.01563 ug/mL; repI
T9 peptide: GSESTSSMEDC(BSA)
Method: as §1

[12] = target: T10, Peptide 3, non-conjugated (SSMEDYVNFN-C) (human); assay: ELISA; Ab 0.01563 ug/mL; repI
T10 construct: With the extra C-terminal Cys
T10 peptide: SSMEDYVNFNC
Method: as §1

[13] = target: T3, antigen peptide-BSA (immunisation …); assay: ELISA; Ab 0.01563 ug/mL; repI
Method: as §1

[14] = target: T11, human CCR9 on cells (MOLT-4, SupT1) (human, UniProt P51686 1-369); assay: flow cytometry on 300.19 cells overexpressing human CCR9 against CCR9-negative 300.19 WT cells, detection with anti-mouse-IgG(H+L) A647 [Cont.) B]
T11 construct: whole, on cells; also called C-C chemokine receptor type 9; CDw199
T11 sequence (looked up): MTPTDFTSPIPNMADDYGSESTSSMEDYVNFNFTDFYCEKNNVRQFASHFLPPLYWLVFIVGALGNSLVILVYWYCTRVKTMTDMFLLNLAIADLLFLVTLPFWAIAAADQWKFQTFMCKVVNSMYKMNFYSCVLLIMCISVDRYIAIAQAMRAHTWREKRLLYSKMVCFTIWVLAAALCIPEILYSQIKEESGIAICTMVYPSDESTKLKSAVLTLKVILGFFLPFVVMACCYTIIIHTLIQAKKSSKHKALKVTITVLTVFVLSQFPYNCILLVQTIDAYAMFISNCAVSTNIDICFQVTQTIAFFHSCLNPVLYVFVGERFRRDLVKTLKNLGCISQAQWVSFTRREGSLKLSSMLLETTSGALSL

[15] = target: T12, biotin-peptide MTPTDFTSPI (human, also: prints MTPTDFTSP, without I10); assay: ELISA, biotin-peptide
T12 peptide: Biotin-MTPTDFTSPI

[16] = target: T13, biotin-peptide FNFTDFYCEK (human); assay: ELISA, biotin-peptide
T13 peptide: Biotin-FNFTDFYCEK

[17] = target: T14, biotin-peptide TSPIPNMADD (human); assay: ELISA, biotin-peptide
T14 peptide: Biotin-TSPIPNMADD

[18] = target: T15, biotin-peptide SSMEDYVNFN (human); assay: ELISA, biotin-peptide
T15 peptide: Biotin-SSMEDYVNFN

[19] = target: T16, biotin-peptide SMEDYVNFNF (human); assay: ELISA, biotin-peptide
T16 peptide: Biotin-SMEDYVNFNF

[20] = target: T17, biotin-peptide IPNMADDYGS (human); assay: ELISA, biotin-peptide
T17 peptide: Biotin-IPNMADDYGS

[21] = target: T18, biotin-peptide DYGSESTSSM (human); assay: ELISA, biotin-peptide
T18 peptide: Biotin-DYGSESTSSM

[22] = target: T19, biotin-peptide TSSMEDYVNF (human); assay: ELISA, biotin-peptide
T19 peptide: Biotin-TSSMEDYVNF

[23] = target: T20, biotin-peptide YVNFNFTDFY (human); assay: ELISA, biotin-peptide
T20 peptide: Biotin-YVNFNFTDFY

[24] = target: T21, biotin-peptide SESTSSMEDY (human); assay: ELISA, biotin-peptide
T21 peptide: Biotin-SESTSSMEDY

[25] = target: T22, biotin-peptide YCEKNNVRQF (human); assay: ELISA, biotin-peptide
T22 peptide: Biotin-YCEKNNVRQF

biotin-peptide KNNVRQFAS = target: T23, biotin-peptide KNNVRQFAS (human); assay: ELISA, biotin-peptide
T23 peptide: Biotin-KNNVRQFAS

[26] = target: T24, biotin-peptide TDFYCEKNNV (human); assay: ELISA, biotin-peptide
T24 peptide: Biotin-TDFYCEKNNV

[27] = target: T25, biotin-peptide TDFTSPIPNM (human); assay: ELISA, biotin-peptide
T25 peptide: Biotin-TDFTSPIPNM

[28] = target: T26, biotin-peptide MADDYGSEST (human); assay: ELISA, biotin-peptide
T26 peptide: Biotin-MADDYGSEST

[29] = target: T27, biotin-peptide MEDYVNFNFT (human); assay: ELISA, biotin-peptide
T27 peptide: Biotin-MEDYVNFNFT

T6 sequence (P02769 25-607 limits assumed): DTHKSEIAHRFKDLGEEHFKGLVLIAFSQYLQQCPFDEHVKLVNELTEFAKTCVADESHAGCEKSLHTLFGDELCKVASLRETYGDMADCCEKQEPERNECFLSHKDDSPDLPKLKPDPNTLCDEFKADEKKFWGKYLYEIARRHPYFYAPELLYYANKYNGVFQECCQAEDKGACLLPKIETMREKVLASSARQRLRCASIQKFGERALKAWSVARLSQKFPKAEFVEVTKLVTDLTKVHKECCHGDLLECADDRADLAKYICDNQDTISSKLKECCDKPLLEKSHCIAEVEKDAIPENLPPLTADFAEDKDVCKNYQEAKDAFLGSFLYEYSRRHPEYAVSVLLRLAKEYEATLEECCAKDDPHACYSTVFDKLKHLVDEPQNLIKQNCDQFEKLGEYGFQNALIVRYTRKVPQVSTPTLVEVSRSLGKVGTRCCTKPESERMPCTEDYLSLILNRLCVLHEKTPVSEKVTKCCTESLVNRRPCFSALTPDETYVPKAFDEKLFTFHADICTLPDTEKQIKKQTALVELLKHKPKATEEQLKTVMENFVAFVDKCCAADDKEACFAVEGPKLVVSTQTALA

B1: anti-CCR9 antibody clone 115 (murine, from hybridoma #115) (antibody, V domains shown)
VH: QVQLKQSGPELVKPGTSVRVSCTASGYSFTDYIIYWVKQSHGRSLEWIGYIDPNNYNTRYSQKFKGKATLTVDKSSTSAFMHLNSLTSDDSAVYYCARDVYWGQGTTLTVSS
VL: DVVMTQTPLSLTVSLGDQASISCRSSQSLVHSNGKTYLQWYLQKPGQSPKLLIYKVSNRFSGVPDRFSGSGSGTDFTLKISRVEAEDLGVYFCAQSTHVWTFGGGTKLEIKR
notes: Mouse IgG1
OD450 [1]: 2.17 OD | OD450 [2]: 0.04 OD | OD450 [3]: 2.58 OD | OD450 [4]: 0.91 OD | OD450 [5]: 0.01 OD | OD450 [6]: 1.33 OD | OD450 [7]: 0.01 OD | OD450 [8]: 0.01 OD | OD450 [9]: 0.01 OD | OD450 [10]: 0.38 OD | OD450 [11]: 0.01 OD | OD450 [12]: 1.47 OD | OD450 [13]: 1.1 OD | binding result [14]: binds

B2: Comparative antibody 1 (Comp-1) scFv, SEQ ID NO: 10 from WO2023/037125 A1, His-tagged (scFv)
scFv: QVQLKESGPGLVQPSQTLSLTCTVSGFSVASYDMHWVRLPPGKGLEWMGIIWANGNTHYNSGLKSRLSISRDTSKSQVFLKMNSLQTEDTAIYFCTRGGFAYWGQGTLVTVSSGGGGSGGGGSGGGGSGGGGSDVVMTQTPVSLSVSLGGQVSISCRSSQSLVHNNGNTYLSWYLQKPGQSPQLLIYKVSNRFSGVSDRFSGSGSGTDFTLKISRVEPDDLGVYYCGQGTQYPTFGGGTKLELKHHHHHH
binding result [15]: no binding (tested: 10 ug/mL) | binding result [16]: no binding (tested: 10 ug/mL) | binding result [17]: no binding (tested: 10 ug/mL) | binding result [18]: no binding (tested: 10 ug/mL) | binding result [19]: no binding (tested: 10 ug/mL) | binding result [20]: no binding (tested: 10 ug/mL) | binding result [21]: no binding (tested: 10 ug/mL) | binding result [22]: no binding (tested: 10 ug/mL) | binding result [23]: no binding (tested: 10 ug/mL) | binding result [24]: no binding (tested: 10 ug/mL) | binding result [25]: no binding (tested: 10 ug/mL) | binding result (biotin-peptide KNNVRQFAS): no binding (tested: 10 ug/mL) | binding result [26]: no binding (tested: 10 ug/mL) | binding result [27]: no binding (tested: 10 ug/mL) | binding result [28]: no binding (tested: 10 ug/mL) | binding result [29]: no binding (tested: 10 ug/mL)
